Results published in PMC12256043, “Integrated platform for structural and functional analysis of terpene synthases of Cannabis sativa” (PeerJ, 2025).
One block for each molecule: values may come before it.

How the values were obtained:
Assay in all cases: malachite green assay coupled to inorganic pyrophosphatase
Settings in all cases: pH 7.5, 5 mM MgCl2, 37 °C, 30 min
CsTPS12PK = biological target: T1, CsTPS12PK (Cannabis sativa, UniProt A0A1V0QSF4); format: biochemical
T1 construct: gene TPS33PK; printed as CsTPS12PK/CsTPS33PK; E. coli; monomer
Description: malachite green assay coupled to inorganic pyrophosphatase on CsTPS12PK

CsTPS13PK = biological target: T2, CsTPS13PK (Cannabis sativa, UniProt A0A1V0QSG1); format: biochemical
T2 construct: gene TPS13PK; E. coli BL21(DE3); monomer
Description: malachite green assay coupled to inorganic pyrophosphatase on CsTPS13PK

[1] = substrate: CC(C)=CCC/C(C)=C/CC/C(C)=C/CO[P@@](=O)(O)OP(=O)(O)O; format: biochemical, Cannabis sativa
Description: malachite green assay coupled to inorganic pyrophosphatase on CsTPS20CT

[2] = substrate: CC(C)=CCC/C(C)=C/COP(=O)(O)OP(=O)(O)O; format: biochemical, Cannabis sativa
Description: malachite green assay coupled to inorganic pyrophosphatase on CsTPS1SK

[3] = substrate: CC(C)=CCC/C(C)=C/COP(=O)(O)OP(=O)(O)O; format: biochemical, Cannabis sativa; remark: listed apart in the source
[4] = substrate: CC(C)=CCC/C(C)=C/COP(=O)(O)OP(=O)(O)O; format: biochemical, Cannabis sativa; remark: listed apart in the source
Description: malachite green assay coupled to inorganic pyrophosphatase on CsTPS3FN

[5] = substrate: CC(C)=CCC/C(C)=C/CC/C(C)=C/CO[P@@](=O)(O)OP(=O)(O)O; format: biochemical, Cannabis sativa; remark: listed apart in the source
Description: malachite green assay coupled to inorganic pyrophosphatase on CsTPS16CC

T1 sequence (A0A1V0QSF4 34-615): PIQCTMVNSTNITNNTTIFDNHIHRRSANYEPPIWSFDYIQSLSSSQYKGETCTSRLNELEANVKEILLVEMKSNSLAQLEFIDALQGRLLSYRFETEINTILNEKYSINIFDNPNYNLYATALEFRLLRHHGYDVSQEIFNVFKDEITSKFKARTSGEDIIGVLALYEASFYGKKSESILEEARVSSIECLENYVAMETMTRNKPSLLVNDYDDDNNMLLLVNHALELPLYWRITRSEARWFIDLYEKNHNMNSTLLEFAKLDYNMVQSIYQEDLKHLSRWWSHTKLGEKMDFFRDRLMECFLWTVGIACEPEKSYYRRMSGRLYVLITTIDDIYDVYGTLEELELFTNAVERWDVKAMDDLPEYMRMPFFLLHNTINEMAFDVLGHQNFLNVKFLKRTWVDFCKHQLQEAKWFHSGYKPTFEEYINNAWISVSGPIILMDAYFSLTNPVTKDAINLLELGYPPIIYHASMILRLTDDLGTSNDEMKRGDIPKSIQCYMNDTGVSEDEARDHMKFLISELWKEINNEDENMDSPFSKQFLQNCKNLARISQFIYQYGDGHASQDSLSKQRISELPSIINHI
T2 sequence (A0A1V0QSG1 41-640): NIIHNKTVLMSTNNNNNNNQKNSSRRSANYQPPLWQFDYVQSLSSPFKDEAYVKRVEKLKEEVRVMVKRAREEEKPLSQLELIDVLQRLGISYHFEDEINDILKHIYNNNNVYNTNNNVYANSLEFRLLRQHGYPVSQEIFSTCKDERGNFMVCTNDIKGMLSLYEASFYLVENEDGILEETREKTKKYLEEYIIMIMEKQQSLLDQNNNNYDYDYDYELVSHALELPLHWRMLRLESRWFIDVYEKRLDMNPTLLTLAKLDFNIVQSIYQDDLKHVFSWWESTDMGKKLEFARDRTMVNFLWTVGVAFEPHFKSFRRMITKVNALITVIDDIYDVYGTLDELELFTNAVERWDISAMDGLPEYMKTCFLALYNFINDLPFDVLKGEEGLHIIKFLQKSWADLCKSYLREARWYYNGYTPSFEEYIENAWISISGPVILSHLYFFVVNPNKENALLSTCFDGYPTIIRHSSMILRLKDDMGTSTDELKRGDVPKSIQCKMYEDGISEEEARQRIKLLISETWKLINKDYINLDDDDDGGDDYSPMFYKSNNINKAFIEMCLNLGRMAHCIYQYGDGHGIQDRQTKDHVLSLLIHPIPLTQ

Km (CsTPS12PK): 41.8 ± 8.29 µM | Km (CsTPS13PK): 13 ± 1.23 µM
Molecule: CC(C)=CCC/C(C)=C/COP(=O)(O)OP(=O)(O)O [GPP, geranyl diphosphate]

B1: CsTPS20CT (Cannabis sativa) (protein)
chain: MSNIQVLASSQLSDKIIARPTTKFHPSIWGDRFLHYNISEQDLVCKQEKVEELIQVVKKEILSSNHDQLKLIDNLQRLGLSYHFESEIEKLLEQLSITHHQNHHDLHDASLWFRLLRQHGFNVSSSIFEKFKDEEGNFKESLITDVPGLLSLYEASHLSYVGESILDEALAFTTTHLKAIVANSKDHPLSHQISIVLHRPLRKTIERLHARFYISIYEKDASHNKLLLELAKLDFNLLQCFHKKELSEITRWWKEHEFAKKFPFARDRMVELYFWILGVYYEPKYSRARKLLTKVIALTSITDDIYDAYGTIDELQLLTKAIQRWDINCMDKLKQEYLKTYYKVMLDSYEEFEKELKKEELYKLEYAKEEMKRIIGGYFEEARWLNEGYFPSFDEHLRVSYVSSGNVLLIATSFVGMHDVVTHETLDWLSKDPKIVSASTLLSRFMDDIGSRKFEQKRNHIPSTVDCYMKQYGVSEEEAIKELNKRVDTHWKEINEDFIRPAVVPFPILVRVLNFTKIVDLLYKEGDDQYTNVGKVLKESIAALLIDSIPL
notes: E. coli BL21(DE3); monomer
Km [1]: 16.86 ± 6.42 µM

B2: CsTPS1SK (Cannabis sativa) (protein)
chain: RSANYGPPIWSFDFVQSLPIQYKGESYTSRLNKLEKDVKRMLIGVENSLAQLELIDTIQRLGISYRFENEIISILKEKFTNNNNNPNPINYDLYATALQFRLLRQYGFEVPQEIFNNFKNHKTGEFKANISNDIMGALGLYEASFHGKKGESILEEARIFTTKCLKKYKLMSSSNNNNMTLISLLVNHALEMPLQWRITRSEAKWFIEEIYERKQDMNPTLLEFAKLDFNMLQSTYQEELKVLSRWWKDSKLGEKLPFVRDRLVECFLWQVGVRFEPQFSYFRIMDTKLYVLLTIIDDMHDIYGTLEELQLFTNALQRWDLKELDKLPDYMKTAFYFTYNFTNELAFDVLQEHGFVHIEYFKKLMVELCKHHLQEAKWFYSGYKPTLQEYVENGWLSVGGQVILMHAYFAFTNPVTKEALECLKDGHPNIVRHASIILRLADDLGTLSDELKRGDVPKSIQCYMHDTGASEDEAREHIKYLISESWKEMNNEDGNINSFFSNEFVQVKQNLGRASQMIYQYGDGHASQNNLSKERVLGLIITPIPM
notes: E. coli BL21(DE3); monomer
Km [2]: 7.809 ± 0.678 µM

B3: CsTPS5FN (Cannabis sativa) (protein)
chain: MSLSGLISTTTFKEQPAIVRRSGNYKPPLWDAHFIQSLQVIYTEESYGKRINELKEDVRRILEKEAENPLVKLEQINDLSRLGISYHFEDQIKAILNLTYNNNNALWKKDNLYATALHFKLLRQYGFNPVSSEIFNAFKDEKKEFKESLSKDVKGMVCLYEASFYSFRGEPILDEARDFTTKHLKQYLMMTRQGQNVDHDDDNDLMVKLVEHALELPVHWRMKRLEARWFIDMYAEMSHHHHMNSTFLQLAKLDFNVVQSTYQEDLKHVVRWWKTTSLGERLPFARDRIVEIFLWSVGLKFEPQFRYCRKMLTKIGQLVTTMDDIFDVYGTLDELSLFQHALGRWDINTIDQLPDYMKIFFLATYNVVNEMAYDVLKQNGILIIKYLKKTWTDLCKCYMLEANWYHSGYTPSLEEYIKNGWISIAEPLILVNLYCLITNPIKEDDIDCLLQYPTFIRISGIIARLVDDLGTSSDELKRGDNPKSIQCYMKENGICDEKNGREHIRNLISETWKEMNEARVGESPFSQAFIETAIDFVRTAMMIYQKEQDGVGTNIDHYTKDGIISLFFTSIPI
notes: E. coli BL21(DE3); monomer
Km [3]: 23.3 ± 1.34 µM

B4: CsTPS3FN (Cannabis sativa) (protein)
chain: RSANYEPPIWSFDYIQSLSTQYKGESYTRQLNKLKKEVKRMLLRMEINSLALLELIDTLQRLGISYHFKNEINTILKKKYNDNYINNNIITNPNYNNLYATALEFRLLRQHGYTVPQEIFNAFKDKRGKFKTSLSDDIMGVLCLYEASFYAMKHENILEEARIFSTKCLKKYMEKIENEEEKKILLLNDNNINSNLLLINHAFELPLHWRITRSEARWFIDEIYEKKQDMNSTLFEFAKLDFNIVQSTHQEDLQHLSRWWRDCKLGGKLNFARDRLMEAFLWDVGLKFEGEFSYFRRTNARLFVLITIIDDIYDVYGTLEELELFTSAVERWDVKLINELPDYMKMPFFVLHNTINEMGFDVLVEQNFVNIEYLKKSWVDLCKCYLQEAKWYYSGYQPTLEEYTELGWLSIGASVILMHAYFCFTNPITKQDLKSLQLQHHYPNIIKQACLITRLADDLGTSSDELNRGDVPKSIQCYMYDNNATEDEAREHIKFLISETWKDMNKKDEDESCLSENFVEVCKNMARTALFIYENGDGHGSQNSLSKERISTLIITPINIPK
notes: E. coli BL21(DE3); monomer
Km [4]: 4.569 ± 0.411 µM

B5: CsTPS16CC (Cannabis sativa) (protein)
chain: MSSQVLASSQKNDKTQNIIRPTTKFHPPIWGDRFLHYNISEQELEYKEGQVEELKEVVRKEIFHGNNKRNIINVSKQLKLIDDVERLGLSYHFESEIEKKLQHIYEITTNNIDHQDQHYYYSNHDEDLHDVSIRFRLLRQHGFNISSNIFEKFKDESGKFKESLKSDIEGMLSLYEASYLSYVEENILDEALAFTTTNLKLVANKKEHPLSHEISLALYRPLRKTLVRLYARHYISIYEKQPSHNKVLLQFAKLDFNLLQSLHKKELSEISRWWKELDLANKLPFARNRIVELYLWILGVFHEPQFSLARKILIKAISMASVADDIYDAYGTFEELELLTEAILRWDISFIDKLSPDYLKTYYKVFLNSYEECEKDLKKEERYKLHYAKESMKKLIQAYFHEAQWLNQGHFPSFDEHLKVSFVSSGYPMLIETSFVGMQDVKTNQVFEWLSTQPKIFRACTIISRFMDDLVSRKFEQERNHVPSTVDCYMKQYGVSEQEACDELNKQVVNLWKEINQEFLRPTSMPSSILVRILNFTKVLDIIYKEGDGYTHVGKLVKDSVAALLIDPIPL
notes: E. coli BL21(DE3); monomer
Km [5]: 38.43 ± 2.83 µM
